Laboratory results reported in the RNAGym collection of RNA variant scans (doi:10.7554/elife.80360).

B1: HDV Ribozyme (parent)
chain: GGCCGGCAUGGUCCCAGCCUCCUCGCUGGCGCCGGCUGGGCAACAUUCCGAGGGGACCGUCCCCUCGGUAAUGGCGAAUGGGACCCA

Variants of: B1
Assay: self-cleavage, relative activity (ratio to wild type); higher = more cleavage; co-transcriptional

Compared with GGCCGGCAUGGUCCCAGCCUCCUCGCUGGCGCCUGCUGGGCAACAUUCCGAGGGGACCGUCCCCUCGGCAAUGGCGAAUGGGACCCA, GGCCGGCAUGGUCCCAGCCUCCUCGCUGGCGCCUGCUGGGCAACAUUCCGAGGGGACCGUCCCCUCGGAAAUGGCGAAUGGGACCCA is lower in self-cleavage: 0.204 for the first, 0.102 for the second.

Going from GGCCGGCAUGGUCCCAGCCUCCUCGCUGGCGCCGACUGGGCAACAUUCCGAGGGGACCGUCCCCUCGGUAAGGGCGAAUGGGACCCA to GGCCGGCAUGGUCCCAGCCUCCUCGCUGGCGCCGAAUGGGCAACAUUCCGAGGGGACCGUCCCCUCGGUAAUGGCGAAUGGGACCCA, the self-cleavage falls from 0.251 to 0.115.

Going from GGCCGGCAUGGUCCCAGCCUCCUCGCUGGCGCCGACUGGGCAACAUUCCGAGGGGACCGUCCCCUCGGUAAUGGGGAAUGGGACCCA to GGCCGGCAUGGUCCCAGCCUCCUCGCUGGCGCCGACUGGGCAACAUUCCGAGGGGGCCGUCCCCUCGGUAAUGGCGAAUGGGACCCA, the self-cleavage rises from 0.218 to 0.769.

Going from GGCCGGCAUGGUCCCAGCCUCCUCGCUGGCGCCGCCUGGGCAACCUUCCGAGGGGACCGUCCCCUCGGUAAUGGCGAAUGGGACCCA to GGCCGGCAUGGUCCCAGCCUCCUCGCUGGCGCCGCCUGGGCAACUUUCCGAGGGGACCGUCCCCUCGGUAAUGGCGAAUGGGACCCA, the self-cleavage rises from 0 to 0.122.

Going from GGCCGGCAUGGUCCCAGCCUCCUCGCUGGCGCCGACUGGGCAACAUUCCGAGGGGACCGUCCCGUCGGUAAUGGCGAAUGGGACCCA to GGCCGGCAUGGUCCCAGCCUCCUCGCUGGCGCCGCCUGGGCAACAUUCCGAGGGGACCGUCCCCUCGGUAAUGGCGACUGGGACCCA, the self-cleavage falls from 0.31 to 0.0519.

Going from GGCCGGCAUGGUCCCAGCCUCCUCGCUGGCGCCUGCUGGGCAACAUUCCGAGGGGACCGUCCCCUCGGUAAGGGCGAAUGGGACCCA to GGCCGGCAUGGUCCCAGCCUCCUCGCUGGCGCCGACUGGGCAUCAUUCCGAGGGGACCGUCCCCUCGGUAAUGGCGAAUGGGACCCA, the self-cleavage falls from 0.297 to 0.108.

First: GGCCGGCAUGGUCCCAGCCUCCUCGCUGGCGCCGACUGGGCAGCAUUCCGAGGGGACCGUCCCCUCGGUAAUGGCGAAUGGGACCCA
Second: GGCCGGCAUGGUCCCAGCCUCCUCGCUGGCGCCGCCUGGGCAACAUUCCGAGGGGCCCGUCCCCUCGGUAAUGGCGAAUGGGACCCA
The self-cleavage of the first is lower: 0.185 for the first, 0.302 for the second.

Compared with GGCCGGCAUGGUCCCAGCCUCCUCGCUGGCGCCGACUGCGCAACAUUCCGAGGGGACCGUCCCCUCGGUAAUGGCGAAUGGGACCCA, GGCCGGCAUGGUCCCAGCCUCCUCGCUGGCGCCGACUGGGCAACAUUCCGAGGGGACCGUCACCUCGGUAAUGGCGAAUGGGACCCA is higher in self-cleavage: 0.113 for the first, 0.526 for the second.

Going from GGCCGGCAUGGUCCCAGCCUCCUCGCUGGCGCCGACUGGGCAACAUUCCGAGGGGACCGUCCGCUCGGUAAUGGCGAAUGGGACCCA to GGCCGGCAUGGUCCCAGCCUCCUCGCUGGCGCCGACUGGGCUACAUUCCGAGGGGACCGUCCCCUCGGUAAUGGCGAAUGGGACCCA, the self-cleavage falls from 0.346 to 0.166.

First: GGCCGGCAUGGUCCCAGCCUCCUCGCUGGCGCCGACUGGGCCACAUUCCGAGGGGACCGUCCCCUCGGUAAUGGCGAAUGGGACCCA
Second: GGCCGGCAUGGUCCCAGCCUCCUCGCUGGCGCCGACUGGGCAACACUCCGAGGGGACCGUCCCCUCGGUAAUGGCGAAUGGGACCCA
The self-cleavage of the first is lower: 0.277 for the first, 0.289 for the second.

Compared with GGCCGGCAUGGUCCCAGCCUCCUCGCUGGCGCCGACUGGGCAACAGUCCGAGGGGACCGUCCCCUCGGUAAUGGCGAAUGGGACCCA, GGCCGGCAUGGUCCCAGCCUCCUCGCUGGCGCCUGCUGGGCAACAUUCCGAGGGGACCGUCCCCUCGGUAAUGUCGAAUGGGACCCA is higher in self-cleavage: 0 for the first, 0.133 for the second.

First: GGCCGGCAUGGUCCCAGCCUCCUCGCUGGCGCCUGCUGGGCAACAUUCCGAGGGGACCGUCCCCUCGGUAAUGACGAAUGGGACCCA
Second: GGCCGGCAUGGUCCCAGCCUCCUCGCUGGCGCCGACUGGGCAACAUUGCGAGGGGACCGUCCCCUCGGUAAUGGCGAAUGGGACCCA
The self-cleavage of the first is lower: 0.0821 for the first, 0.539 for the second.

Going from GGCCGGCAUGGUCCCAGCCUCCUCGCUGGCGCCGACUGGGCAACAUUUCGAGGGGACCGUCCCCUCGGUAAUGGCGAAUGGGACCCA to GGCCGGCAUGGUCCCAGCCUCCUCGCUGGCGCCGACUGGGCAACUUUCCGAGGGGACCGUCCCCUCGGUAAUGGCGAAUGGGACCCA, the self-cleavage falls from 0.499 to 0.406.

First: GGCCGGCAUGGUCCCAGCCUCCUCGCUGGCGCCGACUGGGCAACAUUCCGGGGGGACCGUCCCCUCGGUAAUGGCGAAUGGGACCCA
Second: GGCCGGCAUGGUCCCAGCCUCCUCGCUGGCGCCGACUGGGCAACAUUCCGAGUGGACCGUCCCCUCGGUAAUGGCGAAUGGGACCCA
The self-cleavage of the first is lower: 0.673 for the first, 0.736 for the second.

First: GGCCGGCAUGGUCCCAGCCUCCUCGCUGGCGCCUGCUGGGCAACAUUCCGAGGGGACCGUCCCCUCGGUAAUGGCGAAUGAGACCCA
Second: GGCCGGCAUGGUCCCAGCCUCCUCGCUGGCGCCGACUGGGCAACAUUCCGAGGAGACCGUCCCCUCGGUAAUGGCGAAUGGGACCCA
The self-cleavage of the first is lower: 0.166 for the first, 0.349 for the second.

Compared with GGCCGGCAUGGUCCCAGCCUCCUCGCUGGCGCCUGCUGGGCAACAUUCCGAGGGUACCGUCCCCUCGGUAAUGGCGAAUGGGACCCA, GGCCGGCAUGGUCCCAGCCUCCUCGCUGGCGCCGACUGGGCAACAUUCCGAGGGGACCGUCCCCACGGUAAUGGCGAAUGGGACCCA is higher in self-cleavage: 0.105 for the first, 0.61 for the second.
